Measured values published in article PMC6318249, “DNA Binding and Phosphorylation Regulate the Core Structure of the NF-κB p50 Transcription Factor” (Journal of the American Society for Mass Spectrometry, 2018).
One block for each molecule: values may come before it.

Columns and labels:
[1] = molecular target: Murine NF-κB p50 (39-364) S65D (murine) (UniProt P25799); test: native MS; native IM-MS of p50 (39-364) WT and Ser to Asp variants, no DNA; 100 mM NH4OAc, typically 5 μM; percentage peak areas of monomer and dimer by multi-Gaussian fitting
[2] = molecular target: Murine NF-κB p50 (39-364) S242D (murine) (UniProt P25799); test: as above
[3] = molecular target: p50 (35-381, Enzo Scientific) 35-381 (UniProt P19838); test: native nESI-MS, monomer:dimer ratio, no DNA; settings: reference: p50 before phosphorylation; sites S328,S337
[4] = molecular target: Murine NF-κB p50 (39-364) wild-type (murine) (UniProt P25799); test: native MS; native IM-MS of p50 (39-364) WT and Ser to Asp variants, no DNA; 100 mM NH4OAc, typically 5 μM; percentage peak areas of monomer and dimer by multi-Gaussian fitting
[5] = molecular target: Murine NF-κB p50 (39-364) S337D (murine) (UniProt P25799); test: SEC; size exclusion chromatography of p50 (39-364); monomer measured by protein staining and densitometry
[6] = molecular target: Murine NF-κB p50 (39-364) S337D (murine) (UniProt P25799); test: native MS; native IM-MS of p50 (39-364) WT and Ser to Asp variants, no DNA; 100 mM NH4OAc, typically 5 μM; percentage peak areas of monomer and dimer by multi-Gaussian fitting
[7] = molecular target: Murine NF-κB p50 (39-364) S248D (murine) (UniProt P25799); test: as above
[8] = molecular target: p50 (35-381, Enzo Scientific) 35-381 (UniProt P19838); test: native nESI-MS, monomer:dimer, with κB DNA; settings: reference: non-phosphorylated p50 plus DNA; sites S328,S337
p50 S337D = p50 S337D (Mus musculus, UniProt P25799 39-364, S335D); test: native MS titration; KD: 3 uM p50 with 0.2-6 uM DNA in 300 mM NH4OAc, 5 min, room temperature, 10 uL, pH not stated; native nESI-(IM-)MS; settings: protein: recombinant; tags: His6-MBP removed by 3C protease; chain copies: 2; blunt; strand is self-complementary
p50 S242D = p50 S242D (Mus musculus, UniProt P25799 39-364, S240D); test: as above; settings: protein: recombinant; tags: His6-MBP removed by 3C protease; chain copies: 2; blunt; strand is self-complementary
p50 S248D = p50 S248D (Mus musculus, UniProt P25799 39-364, S246D); test: as above; settings: protein: recombinant; tags: His6-MBP removed by 3C protease; chain copies: 2; blunt; strand is self-complementary
p50 WT = p50 WT (Mus musculus, UniProt P25799 39-364); test: as above; settings: protein: recombinant; tags: His6-MBP removed by 3C protease; chain copies: 2; blunt; strand is self-complementary
p50 S65D = p50 S65D (Mus musculus, UniProt P25799 39-364, S63D); test: as above; settings: protein: recombinant; tags: His6-MBP removed by 3C protease; chain copies: 2; blunt; strand is self-complementary
[9] = molecular target: the molecule itself; test: native MS; nano-ESI native MS of p50 (35-381) before and after in vitro phosphorylation with PKAc or Chk1; 100 mM NH4OAc, typically 5 μM; without and with the κB DNA oligomer; monomer and dimer charge states compared

p50 S242D, sequence (P25799 39-364 S240D): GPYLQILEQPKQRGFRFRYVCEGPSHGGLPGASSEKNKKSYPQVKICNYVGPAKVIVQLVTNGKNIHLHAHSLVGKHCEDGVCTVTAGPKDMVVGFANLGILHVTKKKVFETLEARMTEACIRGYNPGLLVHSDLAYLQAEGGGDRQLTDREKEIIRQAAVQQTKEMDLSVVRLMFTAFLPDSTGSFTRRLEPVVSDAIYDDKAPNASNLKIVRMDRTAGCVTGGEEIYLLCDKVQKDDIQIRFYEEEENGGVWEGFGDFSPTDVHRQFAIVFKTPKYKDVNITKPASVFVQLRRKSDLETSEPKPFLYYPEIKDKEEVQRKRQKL
p50 S248D, sequence (P25799 39-364 S246D): as the sequence (P25799 39-364 S240D) above, with D202S, S208D counted along it
p50 S337D, sequence (P25799 39-364 S335D): as the sequence (P25799 39-364 S240D) above, with D202S, S297D counted along it
p50 S65D, sequence (P25799 39-364 S63D): as the sequence (P25799 39-364 S240D) above, with S25D, D202S counted along it
p50 WT, sequence (P25799 39-364): as the sequence (P25799 39-364 S240D) above, with D202S counted along it

percentage peak area of dimer [2]: 87.6%
percentage peak area of monomer [2]: 12.4%
stoichiometry N [2]: 2
Molecule: Murine NF-κB p50 (39-364) S242D (from UniProt P25799 39-364) (domain or fragment)

binding against the reference [3]: weaker
Molecule: p50 (35-381, Enzo Scientific) 35-381 (from UniProt P19838) PKAc-phosphorylated p50

percentage peak area of dimer [4]: 89.5%
percentage peak area of monomer [4]: 10.5%
stoichiometry N [4]: 2
Molecule: Murine NF-κB p50 (39-364) wild-type (from UniProt P25799 39-364) (domain or fragment)

fold increase in monomer relative to WT p50 [5]: 5 fold
percentage peak area of dimer [6]: 74.8%
percentage peak area of monomer [6]: 25.2%
stoichiometry N [6]: 2
Molecule: Murine NF-κB p50 (39-364) S337D (from UniProt P25799 39-364) (domain or fragment)

Second part, the molecule before the results:

Molecule: Murine NF-κB p50 (39-364) S65D (from UniProt P25799 39-364) (domain or fragment)
percentage peak area of dimer [1]: 90.6%
percentage peak area of monomer [1]: 9.4%
stoichiometry N [1]: 2

Molecule: Murine NF-κB p50 (39-364) S248D (from UniProt P25799 39-364) (domain or fragment)
percentage peak area of dimer [7]: 94.2%
percentage peak area of monomer [7]: 5.8%
stoichiometry N [7]: 2

Molecule: p50 (35-381, Enzo Scientific) 35-381 (from UniProt P19838) PKAc-phosphorylated p50 plus DNA
binding against the reference [8]: same

B1: kB DNA oligomer (KD determination) (dsDNA)
DNA 1: CCCCCGGGGGCCCCCGGGGG
DNA 2: CCCCCGGGGGCCCCCGGGGG
Kd (p50 S337D): 111 ± 15 nM
Kd (p50 S242D): 424 ± 78 nM
Kd (p50 S248D): 112 ± 11 nM
Kd (p50 WT): 37 ± 7 nM
Kd (p50 S65D): 140 ± 16 nM

B2: NF-κB p50 (35-381), non-phosphorylated (domain or fragment, UniProt P19838 35-381, looked up)
chain: MALPTDGPYLQILEQPKQRGFRFRYVCEGPSHGGLPGASSEKNKKSYPQVKICNYVGPAKVIVQLVTNGKNIHLHAHSLVGKHCEDGICTVTAGPKDMVVGFANLGILHVTKKKVFETLEARMTEACIRGYNPGLLVHPDLAYLQAEGGGDRQLGDREKELIRQAALQQTKEMDLSVVRLMFTAFLPDSTGSFTRRLEPVVSDAIYDSKAPNASNLKIVRMDRTAGCVTGGEEIYLLCDKVQKDDIQIRFYEEEENGGVWEGFGDFSPTDVHRQFAIVFKTPKYKDINITKPASVFVQLRRKSDLETSEPKPFLYYPEIKDKEEVQRKRQKLMPNFSDSFGGGSGAG
notes: NF-κB p50, the proteolytic product of p105 (NF-κB1), residues 35-381; also called recombinant p50 (35-381); source: bought: Enzo Scientific
stoichiometry N [9]: 2
